Our source for the Kd values is article PMC4218819.

Assay in all cases: EMSA
What all share (details): 12 mM HEPES-KOH pH 7.6, 10 mM MgCl2, 200 mM NaCl, 4 mM Na2HPO4, 4 mM NaH2PO4, 0.4 mM EDTA, 1 mM DTT, 0.5% BSA, 10% glycerol, 200-fold poly(dI-dC), 1 nM DNA …
(Mobility shift assays separate free from complexed probe on a gel.)

For data set [1], the target named is AraR Y5F Y5F (Bacillus subtilis) (UniProt P96711).
Data set [2] concerns the target AraR E30A E30A (Bacillus subtilis) (UniProt P96711).
The target of data set [3] is AraR WT (Bacillus subtilis) (UniProt P96711).
The test system of data set [4] is AraR Y5F (Bacillus subtilis).
The test system of data set [5] is AraR WT (Bacillus subtilis).
For data set [6], the system named is AraR E30A (Bacillus subtilis).

Where only a bound is given, the exact number is not on record here.

For orientation: Kd means the concentration at which binding is half-saturated. A higher Kd goes with lower affinity. As for “GATTGACAGTATAATAGTCAATTACTATAATAAAATTGTTCGTACAAAGATTTATTTATAGGTTTATTTTCTATCATTAGTACGTATCTTTTGTATTTGAAAGCGTTTTATTTTATGAGAAAGGG (double strand) [ORA1 T16->G]”, the Kd came out at 355 nM in data set [1], 347 nM in data set [2] and 110 nM in data set [3].
For the substance ORA1 A1->C, the dissociation constant Kd in data set [4] was 33.1 10^-8 M; in data set [5], 7.4 10^-8 M; in data set [6] it was 67.5 10^-8 M.
ORA1 T6->G: the Kd in data set [4] is 47.6 10^-8 M; in data set [5], 5.6 10^-8 M; in data set [6], 25.4 10^-8 M.
Turning to “GATTGACAGTATAATAGTCAATTACTATAATAAAATTTTTCGTACAAATATTTATTTATAGGTTTATTTTCTATCATTAGTACGTATCTTTTGTATTTGAAAGCGTTTTATTTTATGAGAAAGGG (double strand) [ORA1 G5->T]”, the values for the Kd in data set [2] and in data set [3] were 748 nM and 345 nM, respectively.
In the case of “GATTGACAGTATAATAGTCAATTACTATAATAACATTGTTCGTACAAATATTTATTTATAGGTTTATTTTCTATCATTAGTACGTATCTTTTGTATTTGAAAGCGTTTTATTTTATGAGAAAGGG (double strand) [ORA1 A1->C]”, the Kd in data set [1] is 331 nM; in data set [2], 675 nM; in data set [3], 74 nM.
As for “GATTGACAGTATAATAGTCAATTACTATAATAAAATTGGTCGTACAAATATTTATTTATAGGTTTATTTTCTATCATTAGTACGTATCTTTTGTATTTGAAAGCGTTTTATTTTATGAGAAAGGG (double strand) [ORA1 T6->G]”, the Kd in data set [1] came out at 476 nM; in data set [2] it was 254 nM; in data set [3] it was 56 nM.
For ORA1 G5->T, the results for the Kd in data set [4], in data set [5] and in data set [6] were > 200 10^-8 M, 34.5 10^-8 M and 74.8 10^-8 M, respectively.
araABDLMNPQ-abfA promoter ORA1-ORA2 WT: the results for the Kd in data set [4], in data set [5] and in data set [6] were 27.4 10^-8 M, 2.7 10^-8 M and 19.8 10^-8 M, respectively.
On to “GATTGACAGTATAATAGTCAATTACTATAATAAAATTGTTCGTACAAATATTTATTTATAGGTTTATTTTCTATCATTAGTACGTATCTTTTGTATTTGAAAGCGTTTTATTTTATGAGAAAGGG (double strand) [araABDLMNPQ-abfA promoter ORA1-ORA2 WT]”, for which the Kd came out at 274 nM in data set [1], 198 nM in data set [2] and 27 nM in data set [3].
Regarding ORA1 T16->G, the values for the Kd in data set [4], in data set [5] and in data set [6] were 35.5 10^-8 M, 11 10^-8 M and 34.7 10^-8 M, respectively.
